Data on 3 molecules can be found in US7605150 (Stanford University, dated 2009).

The target in data set [1] is T1, recombinant human tissue transglutaminase (human, UniProt P21980 1-687, limits assumed).
T1 construct: also called tTGase; tTG
T1 sequence (looked up): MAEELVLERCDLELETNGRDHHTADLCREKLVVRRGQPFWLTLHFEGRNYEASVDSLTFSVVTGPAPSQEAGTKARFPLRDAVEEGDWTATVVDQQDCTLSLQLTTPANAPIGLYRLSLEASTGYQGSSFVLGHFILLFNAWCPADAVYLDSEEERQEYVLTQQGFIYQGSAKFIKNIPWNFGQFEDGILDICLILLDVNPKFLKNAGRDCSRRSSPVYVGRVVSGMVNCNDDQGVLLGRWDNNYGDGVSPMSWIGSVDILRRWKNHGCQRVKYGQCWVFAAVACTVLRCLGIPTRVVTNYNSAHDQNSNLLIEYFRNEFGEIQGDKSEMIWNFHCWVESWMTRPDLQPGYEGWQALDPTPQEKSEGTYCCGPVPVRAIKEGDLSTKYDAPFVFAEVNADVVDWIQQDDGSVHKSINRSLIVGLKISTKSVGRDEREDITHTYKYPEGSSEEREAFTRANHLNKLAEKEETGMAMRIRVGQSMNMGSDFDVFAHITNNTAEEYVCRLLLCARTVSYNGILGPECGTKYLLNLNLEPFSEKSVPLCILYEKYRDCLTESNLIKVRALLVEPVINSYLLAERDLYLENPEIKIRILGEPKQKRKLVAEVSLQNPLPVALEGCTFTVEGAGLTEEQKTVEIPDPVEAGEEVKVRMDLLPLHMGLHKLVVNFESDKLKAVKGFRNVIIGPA
Kind of data set: time-dependent inactivation of tTG (9 uM) by 0-600 uM inhibitor; residual activity by glutamate dehydrogenase-coupled assay at 340 nm; double-reciprocal plot.

The target in data set [2] is T1, recombinant human tissue …. Kind of data set: time-dependent inactivation of tTG; residual activity by glutamate dehydrogenase-coupled assay at 340 nm; double-reciprocal plot.
The target in data set [3] is T2, PQPQLPY.
T2 chain: PQPQLPY

For data set [4], the target named is T3, Ac-PQPQLPF-NH2.
T3 chain: PQPQLPF

*1 amine or outer side, *2 acyl side, *3 side chain or, on linkers, in order; H or OH if unused. Where no end group is shown, it is not given here. [ ]: non-standard residue; d: D form. Aci = acivicin, (2S)-amino[(5S)-3-chloro-4,5-dihydroisoxazol-5-yl]acetic acid, O=C([C@@H](N[*:1])[C@@H]1CC(Cl)=NO1)[*:2]; DON = [N-]=[N+]=CC(=O)CC[C@H](N)C(=O)O

B1: Pro-Gln-Pro-Aci-Leu-Pro-Tyr (peptide)
peptide: PQP[Aci]LPY
notes: Free termini; also called PQPAciLPY; PQP-X-LPY with X = Aci
For B1, the Ki in data set [1] amounted to 780 µM.

B2: Ac-Pro-Gln-Pro-Don-Leu-Pro-Phe-NH2 (peptide)
peptide: Ac-PQP[DON]LPF-NH2
SMILES: CC(=O)N1CCC[C@H]1C(=O)N[C@@H](CCC(N)=O)C(=O)N1CCC[C@H]1C(=O)N[C@@H](CCC(=O)C=[N+]=[N-])C(=O)N[C@@H](CC(C)C)C(=O)N1CCC[C@H]1C(=O)N[C@@H](Cc1ccccc1)C(N)=O
notes: here X = DON; also called Ac-PQP-X-LPF-NH2 with X = DON; compound 41
With B2, the Ki in data set [2] turned out to be 0.07 µM.

B3: recombinant human tissue transglutaminase (protein)
chain: T1 sequence (looked up)
B3: in data set [3], the Michaelis constant (KM) turned out to be 300 µM and the turnover number (kcat) was found to be 0.467 s⁻¹. In addition, in data set [4], the KM came to 400 µM, the kcat is 0.667 s⁻¹ and the kcat/KM worked out at 97000 min^-1M^-1.
